Experimental data from US20120253017A1 (published 2012).
Like-named read-outs stand apart in the source and are kept apart here.

Legend:
[1] = target: T1, human c-kit (recombinant, on BIAcore chip or beads) (human, UniProt P10721 26-524); test: BIAcore, c-kit on SA chip
T1 construct: extracellular domain; also called hcKIT; biotinylated human c-kit
Procedure: All unique dAb clones were expressed in 50 ml cultures (OnEX plus carbenicillin) overnight at 37° C. and purified on protein A (VH dAbs) or protein L (VK dAbs). Purified dAbs were passed over a SA BIAcore chip coated with either human or mouse c-kit at 1 μM to identify those dAbs that bound specifically to either human or murine c-kit.

[2] = target: T1, human c-kit (recombinant, on BIAcore …); test: BIAcore, dAb at 1000 and 500 nM
Procedure: Unique dAbs were expressed as bacterial supernatants in 2.5 L shake flasks in Onex media at 37° C. for 24 hrs at 250 rpm. dAbs were purified from the culture media by absorption to protein A or L agarose followed by elution with 10 mM glycine pH2.0.

[3] = target: T2, cyno c-kit (recombinant, on BIAcore chip) (cynomolgus monkey); test: BIAcore, c-kit on SA chip
T2 chain: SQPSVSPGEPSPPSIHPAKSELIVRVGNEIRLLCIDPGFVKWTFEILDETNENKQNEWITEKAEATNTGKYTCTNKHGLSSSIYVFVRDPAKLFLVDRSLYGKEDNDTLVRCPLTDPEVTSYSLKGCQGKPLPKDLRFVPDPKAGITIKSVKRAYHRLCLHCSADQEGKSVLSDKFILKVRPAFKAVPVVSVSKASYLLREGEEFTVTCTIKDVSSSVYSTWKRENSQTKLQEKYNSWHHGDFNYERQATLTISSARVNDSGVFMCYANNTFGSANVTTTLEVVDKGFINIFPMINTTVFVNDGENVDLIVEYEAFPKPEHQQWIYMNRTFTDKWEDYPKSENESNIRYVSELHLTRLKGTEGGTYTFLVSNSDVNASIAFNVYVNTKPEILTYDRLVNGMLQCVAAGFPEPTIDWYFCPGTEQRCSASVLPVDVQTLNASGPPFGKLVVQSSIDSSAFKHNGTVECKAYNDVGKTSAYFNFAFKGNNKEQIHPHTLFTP

[4] = target: Myosin Light Chain (on streptavidin chip; vMLC1-sulfotag); test: BIAcore, bad fit
[5] = target: T3, human ventricular myosin light chain 1, GlySer(His)6 tag (human, UniProt P08590 1-195, limits assumed); test: BIAcore, vMLC-1 immobilised
T3 construct: also called human vMLC-1; vMLC1-6xHIS
Procedure: (§1) Affinity of all 8 humanised mAbs was determined by BIAcore as described above.

[6] = target: T4, mouse ventricular myosin light chain 1, GlySer(His)6 tag (mouse, UniProt P09542 1-204); test: BIAcore, vMLC-1 immobilised
T4 construct: also called mouse vMLC-1
Procedure: as §1

[7] = target: T5, human c-kit on HEL-92.1.7 and KU812 cells (human, UniProt P10721 26-976); test: flow cytometry, HEL-92.1.7 cells
T5 construct: whole, on cells

[8] = target: T3, human ventricular myosin light chain 1, …; test: BIAcore, vMLC-1 immobilised; remark: listed apart in the source
[9] = target: T4, mouse ventricular myosin light chain 1, …; test: BIAcore, vMLC-1 immobilised; remark: listed apart in the source

Chain of Myosin Light Chain (on streptavidin chip; vMLC1-sulfotag) (chain, as listed by the source): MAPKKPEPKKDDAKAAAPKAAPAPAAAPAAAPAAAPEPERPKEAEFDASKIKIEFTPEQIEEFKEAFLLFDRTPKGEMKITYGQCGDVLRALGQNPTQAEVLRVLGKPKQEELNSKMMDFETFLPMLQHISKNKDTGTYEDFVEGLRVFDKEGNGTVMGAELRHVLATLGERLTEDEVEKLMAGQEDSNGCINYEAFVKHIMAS
T5 sequence (P10721 26-976): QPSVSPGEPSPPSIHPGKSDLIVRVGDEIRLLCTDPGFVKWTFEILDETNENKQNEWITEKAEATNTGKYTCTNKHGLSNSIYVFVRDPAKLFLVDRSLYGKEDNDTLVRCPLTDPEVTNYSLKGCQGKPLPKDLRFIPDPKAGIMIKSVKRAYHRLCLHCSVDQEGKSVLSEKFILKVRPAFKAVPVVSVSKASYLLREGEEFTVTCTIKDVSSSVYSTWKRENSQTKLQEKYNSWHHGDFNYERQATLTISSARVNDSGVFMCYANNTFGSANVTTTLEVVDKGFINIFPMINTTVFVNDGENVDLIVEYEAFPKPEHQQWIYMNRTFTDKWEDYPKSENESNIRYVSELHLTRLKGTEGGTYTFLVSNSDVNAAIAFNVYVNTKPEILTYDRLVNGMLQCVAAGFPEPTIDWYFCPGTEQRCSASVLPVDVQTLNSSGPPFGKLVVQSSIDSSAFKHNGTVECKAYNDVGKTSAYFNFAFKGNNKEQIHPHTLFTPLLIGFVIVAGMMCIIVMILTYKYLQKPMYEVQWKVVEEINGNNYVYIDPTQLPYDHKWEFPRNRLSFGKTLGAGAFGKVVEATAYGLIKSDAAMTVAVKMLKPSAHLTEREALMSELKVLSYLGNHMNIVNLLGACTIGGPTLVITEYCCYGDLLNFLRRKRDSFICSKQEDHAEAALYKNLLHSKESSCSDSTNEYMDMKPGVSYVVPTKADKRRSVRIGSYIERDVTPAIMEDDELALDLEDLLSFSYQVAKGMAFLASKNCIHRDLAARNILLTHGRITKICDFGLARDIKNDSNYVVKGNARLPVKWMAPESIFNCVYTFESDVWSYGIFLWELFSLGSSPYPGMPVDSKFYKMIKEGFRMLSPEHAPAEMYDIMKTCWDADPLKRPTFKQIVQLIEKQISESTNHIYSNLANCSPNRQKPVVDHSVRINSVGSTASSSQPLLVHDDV
T1 sequence (P10721 26-524): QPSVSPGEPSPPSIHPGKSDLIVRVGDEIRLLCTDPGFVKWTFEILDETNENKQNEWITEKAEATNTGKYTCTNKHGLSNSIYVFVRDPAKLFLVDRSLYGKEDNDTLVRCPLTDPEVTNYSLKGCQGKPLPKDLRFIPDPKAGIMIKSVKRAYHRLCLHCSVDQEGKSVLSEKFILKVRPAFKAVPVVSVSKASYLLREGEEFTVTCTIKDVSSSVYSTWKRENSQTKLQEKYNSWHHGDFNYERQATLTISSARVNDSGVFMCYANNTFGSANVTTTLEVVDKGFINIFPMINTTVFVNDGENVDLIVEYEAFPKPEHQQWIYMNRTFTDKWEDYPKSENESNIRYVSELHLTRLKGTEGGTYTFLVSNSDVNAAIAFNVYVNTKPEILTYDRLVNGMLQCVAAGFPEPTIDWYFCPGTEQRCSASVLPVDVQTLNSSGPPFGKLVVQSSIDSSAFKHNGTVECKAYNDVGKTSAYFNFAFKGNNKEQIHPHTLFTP
T3 sequence (P08590 other isoform, or with tags, fused parts or gaps limits assumed): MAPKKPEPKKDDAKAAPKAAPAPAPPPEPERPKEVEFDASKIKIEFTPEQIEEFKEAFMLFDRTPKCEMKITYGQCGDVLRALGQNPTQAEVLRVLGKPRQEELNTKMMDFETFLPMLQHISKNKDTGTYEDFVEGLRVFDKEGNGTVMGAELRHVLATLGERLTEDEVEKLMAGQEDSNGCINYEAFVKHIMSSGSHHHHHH
T4 sequence (P09542 other isoform, or with tags, fused parts or gaps): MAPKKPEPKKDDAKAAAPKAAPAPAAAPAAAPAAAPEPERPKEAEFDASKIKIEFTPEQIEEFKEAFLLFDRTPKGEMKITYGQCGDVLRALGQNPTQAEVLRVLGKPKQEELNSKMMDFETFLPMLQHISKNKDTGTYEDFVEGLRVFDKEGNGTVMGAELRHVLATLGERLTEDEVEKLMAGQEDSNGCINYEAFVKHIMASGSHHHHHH

B1: DOM28h-5 (other)
chain: DIQMTQSPSSLSASVGDRVTITCRASQWIGTALTWYQQKPGKAPKLLIYRGSYLQSGVPSRFSGSGSGTDFTLTISSLQPEDFATYYCQQRYFHPYTFGQGTRVEIKR
notes: dAb, C-terminal FLAG tag (pDOM10); also called DOM28h-005
Binder B1 has a Kd [1] of 533 nM, a Kd [2] of 533 nM and a Kd [3] of 550 nM.

B2: DOM28h-94 (other)
VH: EVQLLESGGGLVQPGGSLRLSCAASGFTFFPYAMGWVRQAPGKGLEWVSFISGRGDTTYYADSVKGRFTISRDNSKNTLYLQMNSLRAEDTAVYYCAKTATSDLWNFDYWGQGTLVTVSS
notes: VH dAb, C-terminal FLAG tag (pDOM10); also called DOM28h-094
B2 gave a Kd [1] of 21800 nM, a Kd [2] of 21800 nM and a Kd [3] of 19200 nM.

B3: DMS5056 (chimeric MLC mAb-cKIT dAb, DOM28m-107) (bispecific antibody)
heavy: not shown
light: DIVMSQSPSSLAVSAGDKVTMSCKSSQSLLYSRTRKNYLAWYQQKPGQSPKLLIYWASTRQSGVPDRFTGSGSGTDFTLTISSVQAEDLAVYYCKQSYNLFTFGSGTKLEIKRTVAAPSVFIFPPSDEQLKSGTASVVCLLNNFYPREAKVQWKVDNALQSGNSQESVTEQDSKDSTYSLSSTLTLSKADYEKHKVYACEVTHQGLSSPVTKSFNRGEC
B3 showed a Kd [4] of 0.048 nM.

B4: DMS5058 (chimeric MLC mAb-cKIT dAb, DOM28m-112) (bispecific antibody)
heavy: not shown
light: DIVMSQSPSSLAVSAGDKVTMSCKSSQSLLYSRTRKNYLAWYQQKPGQSPKLLIYWASTRQSGVPDRFTGSGSGTDFTLTISSVQAEDLAVYYCKQSYNLFTFGSGTKLEIKRTVAAPSVFIFPPSDEQLKSGTASVVCLLNNFYPREAKVQWKVDNALQSGNSQESVTEQDSKDSTYSLSSTLTLSKADYEKHKVYACEVTHQGLSSPVTKSFNRGEC
B4 showed a Kd [4] of 0.042 nM.

B5: DOM28h-66 (other)
chain: EVQLLESGGGLVQPGGSLRLSCAASGFTFPLYEMHWVRQAPGKGLEWVSRISPTGATTYYADSVKGRFTISRDNSKNTLYLQMNSLRAEDTAVYYCAKDRRGRAGVTFDYWGQGTLVTVSS
notes: dAb, C-terminal FLAG tag (pDOM10); also called DOM28h-066
With B5 the Kd [1] was 2900 nM and the Kd [2] was 2900 nM.

B6: DOM28h-33 (other)
chain: EVQLLESGGGLVQPGGSLRLSCAVSGFTFWNYRMGWVRQAPGKGLEWVSSITPQGTHTYYADSVKGRFTISRDNSKNTLYLQMNSLRAEDTAVYYCAKILSMSENHFDYWGQGTLVTVSS
notes: dAb, C-terminal FLAG tag (pDOM10); also called DOM28h-033
In the case of B6, the Kd [1] is reported as 48 nM, the Kd [2] is reported as 48 nM and the Kd [3] is reported as 98.5 nM.

B7: humanised 39-15 mAb 4-1:1-46 (antibody, human IgG1, V domains shown)
VH: QVQLVQSGAEVKKPGASVKVSCKASGYTFTTYWIHWVRQAPGQGLEWMGAIYPGDGDTRYTQNFKDRVTMTRDTSTSTVYMELSSLRSEDTAVYYCAREGTPPFTTATFAMAYWGQGTLVTVSS
VL: DIVMTQSPDSLAVSLGERATINCKSSQSLLYSRTRKNYLAWYQQKPGQPPKLLIYWASTRQSGVPDRFSGSGSGTDFTLTISSLQAEDVAVYYCKQSYNLFTFGQGTKLEIKR
notes: human IgG1 kappa
In the case of B7, the Kd [5] is reported as 0.00818 nM, the koff [5] is reported as 1.63e-05 s⁻¹ and the kon [5] is reported as 1.99e+06 M⁻¹ s⁻¹. The Kd [6] was 0.0426 nM, the koff [6] was 7.65e-05 s⁻¹ and the kon [6] was 1.79e+06 M⁻¹ s⁻¹.

B8: humanised 39-15 mAb 4-1:1-8 (antibody, V domains shown)
VH: QVQLVQSGAEVKKPGASVKVSCKASGYTFTTYWIHWVRQATGQGLEWMGAIYPGDGDTRYTQNFKDRVTMTRNTSISTAYMELSSLRSEDTAVYYCAREGTPPFTTATFAMAYWGQGTLVTVSS
VL: DIVMTQSPDSLAVSLGERATINCKSSQSLLYSRTRKNYLAWYQQKPGQPPKLLIYWASTRQSGVPDRFSGSGSGTDFTLTISSLQAEDVAVYYCKQSYNLFTFGQGTKLEIKR
Work on B8 yielded a Kd [5] of 0.0128 nM, a koff [5] of 1.87e-05 s⁻¹ and a kon [5] of 1.46e+06 M⁻¹ s⁻¹. The Kd [6] was 0.0589 nM, the koff [6] was 7.78e-05 s⁻¹ and the kon [6] was 1.32e+06 M⁻¹ s⁻¹.

B9: humanised 39-15 mAb 4-1:5-51 (antibody, human IgG1, kappa, V domains shown)
VH: EVQLVQSGAEVKKPGESLKISCKGSGYSFTTYWIHWVRQMPGKGLEWMGAIYPGDGDTRYTQNFKDQVTISADKSISTAYLQWSSLKASDTAMYYCAREGTPPFTTATFAMAYWGQGTLVTVSS
VL: DIVMTQSPDSLAVSLGERATINCKSSQSLLYSRTRKNYLAWYQQKPGQPPKLLIYWASTRQSGVPDRFSGSGSGTDFTLTISSLQAEDVAVYYCKQSYNLFTFGQGTKLEIKR
notes: human IgG1 kappa
Work on B9 yielded a Kd [5] of 0.00169 nM, a koff [5] of 2.65e-06 s⁻¹ and a kon [5] of 1.57e+06 M⁻¹ s⁻¹. It also gave a Kd [6] of 0.0153 nM, a koff [6] of 2.16e-05 s⁻¹ and a kon [6] of 1.42e+06 M⁻¹ s⁻¹.

B10: DOM28m-52 (other)
chain: EVQLLESGGGLVQPGGSLRLSCAASGFTFSSYNMSWVRQAPGKGLEWVSWISSSGLMTYYADSVKGRFTISRDNSKNTLYLQMNSLRAEDTAVYYCAKTSLGSHPSRRPFDYWGQGTLVTVSS
notes: dAb, C-terminal FLAG tag (pDOM10)
B10: binds [7].

B11: DOM28h-110 (other)
chain: EVQLLESGGGLVQPGGSLRLSCAASGFTFRKYAMMWVRQAPGKGLEWVSTITASGGGTYYADSVKGRFTISRDNSKNTLYLQMNSLRAEDTAVYYCAKPLNQYATQFDYWGQGTLVTVSS
notes: as for B10
In the case of B11, the Kd [1] is reported as 3300 nM and the Kd [2] is reported as 3300 nM.

B12: DOM28h-43 (other)
chain: DIQMTQSPSSLSASVGDRVTITCRASSPIGESLKWYQQKPGKAPKLLIWGGSWLQSGVPSRFSGSGSGTDFTLTISSLQPEDFATYYCGPGRGWPLTFGQGTKVEIKR
notes: dAb, C-terminal FLAG tag (pDOM10); also called DOM28h-043
In the case of B12, the Kd [1] is reported as 239 nM and the Kd [3] is reported as 345 nM.

B13: anti-MLC mAb 39-15 purified from the hybridoma (ATCC HB11709) (antibody, mouse IgG1, V domains shown)
VH: QVQLQQSGAELASPGASVKLSCKASGYTFTTYWIHWVKQRPGQGLEWIGAIYPGDGDTRYTQNFKDKATLTADSSSSTAYMQLSSLASEDSAVFYCAREGTPPFTTATFAMAYWGQGTSVTVSS
VL: DIVMSQSPSSLAVSAGDKVTMSCKSSQSLLYSRTRKNYLAWYQQKPGQSPKLLIYWASTRQSGVPDRFTGSGSGTDFTLTISSVQAEDLAVYYCKQSYNLFTFGSGTKLEIKR
notes: mouse IgG1 kappa; also called anti-MLC (Hybridoma)
B13 was tested, and the Kd [8] was 0.0003 nM, the koff [8] was 1.1e-06 s⁻¹ and the kon [8] was 3.5e+06 M⁻¹ s⁻¹. The Kd [9] was 0.0235 nM, the koff [9] was 3.07e-05 s⁻¹ and the kon [9] was 1.31e+06 M⁻¹ s⁻¹.

B14: DMS5052 (chimeric MLC mAb-cKIT dAb, DOM28m-007) (bispecific antibody)
heavy (part 1 of 2): QVQLQQSGAELASPGASVKLSCKASGYTFTTYWIHWVKQRPGQGLEWIGAIYPGDGDTRYTQNFKDKATLTADSSSSTAYMQLSSLASEDSAVFYCAREGTPPFTTATFAMAYWGQGTSVTVSS
heavy (part 2 of 2): STGEVQLLESGGGLVQPGGSLRLSCAASGFTFSNYAMGWVRQAPGKGLEWVSSISSSGFATYYADSVKGRFTISRDNSKNTLYLQMNSLRAEDTAVYYCAKSESRTFKAFDYWGQGTLVTVSS
light: DIVMSQSPSSLAVSAGDKVTMSCKSSQSLLYSRTRKNYLAWYQQKPGQSPKLLIYWASTRQSGVPDRFTGSGSGTDFTLTISSVQAEDLAVYYCKQSYNLFTFGSGTKLEIKR
notes: not shown: human IgG1 CH1-CH2-CH3
Work on B14 yielded a Kd [4] of 0.047 nM.

B15: recombinant anti-MLC mAb (39-15) (antibody, mouse IgG1, V domains shown)
VH: QVQLQQSGAELASPGASVKLSCKASGYTFTTYWIHWVKQRPGQGLEWIGAIYPGDGDTRYTQNFKDKATLTADSSSSTAYMQLSSLASEDSAVFYCAREGTPPFTTATFAMAYWGQGTSVTVSS
VL: DIVMSQSPSSLAVSAGDKVTMSCKSSQSLLYSRTRKNYLAWYQQKPGQSPKLLIYWASTRQSGVPDRFTGSGSGTDFTLTISSVQAEDLAVYYCKQSYNLFTFGSGTKLEIKR
notes: mouse IgG1 heavy and mouse kappa constant regions, expressed in HEK293E
B15 gave a Kd [8] of 0.0047 nM, a koff [8] of 1.78e-05 s⁻¹ and a kon [8] of 3.81e+06 M⁻¹ s⁻¹. It also gave a Kd [9] of 0.0222 nM, a koff [9] of 3.46e-05 s⁻¹ and a kon [9] of 1.56e+06 M⁻¹ s⁻¹.

B16: DOM28m-47 (other)
VH: EVQLLESGGGLVQPGGSLRLSCAASGFTFEAYGMMWVRQAPGKGLEWVSSISHSGLITYYADSVKGRFTISRDNSKNTLYLQMNSLRAEDTAVYYCAENGPLRQNSYFDYWGQGTLVTVSS
notes: as for B10
B16: binds [7].

B17: DOM28m-53 (other)
VH: EVQLLESGGGLVQPGGSLRLSCAASGFTFSDYMMMWVRQAPGKGLEWVSTIDHAGAVTYYADSVKGRFTISRDNSKNTLYLQMNSLRAEDTAVYYCAKNQPVWQANQSRRFDYWGQGTLVTVSS
notes: as for B10
B17: binds [7].

B18: DOM28h-84 (other)
chain: EVQLLESGGGLVQPGGSLRLSCAASGFTFSSYGMSWVRQAPGKGLEWVSWISGTGSGTYYADSVKGRFTISRDNSKNTLYLQMNSLRAEDTAVYYCAKGVPGNNRALFDYWGQGTLVTVSS
notes: dAb, C-terminal FLAG tag (pDOM10); also called DOM28h-084
For B18, the Kd [1] was 896 nM, the Kd [2] was 896 nM and the Kd [3] was 10200 nM.
